Source: US9259432B1, “Composition and methods for targeted delivery of a therapeutic compound to the brain or spinal cord of a subject for treatment of neurodegenerative diseases” (Parminder J. S. Vig, priority 2011, dated 2016)

Legend:
Format in all cases: cell-based
[1] = tested on: differentiated GFP-ATXN1[82Q] SHSY5Y cells; assay: Oxyblot of S100B induced oxidized proteins; details: 5 μM S100B 2 hrs; compared to GFP-ATXN1[30Q] cells
Method: FIG. 16: (a) GFP-ATXN1[82Q] and (b) GFP-ATXN1[30Q] SHSY5Y stable cells were placed on 12-well plates and subjected to treatment with 25 nM TPA for 3 days to produce differentiated SHSY5Y cell lines. Next, the cells were pretreated with 50 μM Synb1-ELP-TRTK for 1 hr then treated with 5 μM S100B for 2 hrs or treated with 150 μM H2O2 for 2 hrs, where control cells were treated with serum free media for 3 hrs. Then the cells were lysed and analyzed with the Oxyblot kit and a β-tubulin antibody. Shown is the resulting oxyblot/western blot data. (c) Optical densities of the protein bands were taken using ImageJ software. Graphs shown the ratio of oxidized protein/β-tubulin protein normalized to the control. Statistics were taken using the student's t-test. * GFP-ATXN1[82Q]: S100B vs Synb1-ELP-TRTK+S100B, P<0.05. ψ GFP-ATXN1[82Q]: H2O2 vs GFP-ATXN1[30Q]: H2O2, P<0.05.
GFP-ATXN1[82Q] or GFP-ATXN1[30Q] stable cells were placed on 12-well plates at a concentration of 60,000 cells per well. Cells were treated with 25 nM TPA for 3 days to produce differentiated SHSY5Y cell lines. […] Cell lysates were analyzed with the Oxyblot kit according to manufacturer's protocol ([…]) and with a β-tubulin antibody (Sigma), where 5 μgs of protein was loaded in each well of 4-20% acrylamide gel (Bio-Rad Laboratories, Hercules, Calif., USA). […]

[2] = tested on: differentiated GFP-ATXN1[82Q] SHSY5Y cells; assay: Neurite changes after S100B treatment, mutant ataxin-1 cells; details: 3.0 μM S100B 48 hrs, vs untreated
Method: FIG. 15: GFP-ATXN1[82Q] SHSY5Y stable cells were placed on 2-well slides and subjected to treatment with 25 nM TPA for 3 days to produce differentiated SHSY5Y cells. Next, slides were fixed and probed with (a &b) GFP, (a) Synaptophycin and (b) RAGE antibodies and fluorescent secondary antibodies Alexa 488 and Alexa 546 followed by DAPI staining. Scale Bars: […]. Differentiated SHSY5Y cells were treated with 3.0 μM S100B for 48 hrs and neurite changes were visualized under the microscope. (c) Data is shown as MEAN±STDEV of the percentage of cells with neurites, n=100. (d) Data is shown as MEAN±SE of neurite length, n=100. Statistics were taken using student's t-test. *P<0.05.
SHSY5Y cells (Invitrogen, Carlsbad, Calif., USA) were maintained in DMEM/F12 media (Fisher, Houston, Tex., USA) supplemented with 15% FBS, penicillin-streptomycin (Sigma), and grown in an incubator at 37° C. in the presence of 5% CO2. S100B was labeled with Alexa 488 labeling kit (Invitrogen) to produce 488-S100B. […] Next, cells were washed then treated with 1 μM 488-S100B for 3 hrs and S100B uptake was analyzed by Epi-fluorescence or by Beckman Cytometric FC 500 flow cytometer as previously described (Bidwell et al., 2009). For flow cytometry experiments, 488-S100B uptake was measured by quenching extracellular fluorescence by coating the cells with Trypan Blue (Fisher) as described previously (Bidwell et al., 2009). […]

[3] = tested on: differentiated GFP-ATXN1[30Q] SHSY5Y cells; assay: Neurite changes after S100B treatment, normal ataxin-1 cells; details: 3.0 μM S100B 48 hrs, vs untreated

B1: S100B: glial secreted EF-hand calcium binding protein, purchased from Sigma-Aldrich; applied to cells as neurotoxic stimulus (protein, UniProt P04271 2-92, looked up)
Protein S100-B: SELEKAMVALIDVFHQYSGREGDKHKLKKSELKELINNELSHFLEEIKEQEVVDKVMETLDNDGDGECDFQEFMAFVAMVTTACHEFFEHE
level of oxidized proteins after S100B treatment [1]: greater level of oxidized proteins
neurite length [2]: significantly reduced
percentage of cells with neurites [2]: significant reduction
effect on neurites (percentage of cells with neurites, neurite length) [3]: no significant effect
